US20210113605A1
Several values for one entry are separate records, joined by “and”; a condition that tells them apart may be missing. Identical values can stand only once.

Molecular target: T1, human TACI (transmembrane activator and CAML interactor, TNFRSF13B) on Tregs, iTregs and Bregs (human) (UniProt O14836)
T1 sequence: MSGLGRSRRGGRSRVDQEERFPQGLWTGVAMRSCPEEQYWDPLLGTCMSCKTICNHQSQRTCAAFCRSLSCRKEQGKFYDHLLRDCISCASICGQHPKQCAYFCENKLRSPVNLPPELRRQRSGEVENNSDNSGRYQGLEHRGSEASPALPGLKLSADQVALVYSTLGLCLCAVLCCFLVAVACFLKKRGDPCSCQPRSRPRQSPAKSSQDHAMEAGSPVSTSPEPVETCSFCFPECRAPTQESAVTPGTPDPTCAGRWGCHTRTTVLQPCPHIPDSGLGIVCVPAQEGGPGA
Test: cell-based or functional assay

fold increase of MM cell-induced iTreg in CD4 T cells, against control media: > 1.5 fold and 1.5 to 4 fold
percent Breg (CD19+CD24highCD38high) in B cells of MM patient BMMCs: 25.2%
percent IL-10 production in Bregs of MM patient BMMCs: 29.2%
percent proliferative iTreg (CTV-Foxp3+) in cocultures with U266 MM cells, representative experiment: 13.4%
percent proliferative iTreg (CTV-Foxp3+) in cocultures with U266 MM cells, three experiments: 11.3%
percent proliferative iTreg (CTV-Foxp3+CD4+) in cocultures with U266 MM cells, additional representative experiment: 8.02%
Substance: recombinant human APRIL (a proliferation-inducing ligand) (from UniProt O75888 105-250)
